The experiment concerns the target T1, HA-Halo-MRAP2 (human), Q96G30.
T1 chain: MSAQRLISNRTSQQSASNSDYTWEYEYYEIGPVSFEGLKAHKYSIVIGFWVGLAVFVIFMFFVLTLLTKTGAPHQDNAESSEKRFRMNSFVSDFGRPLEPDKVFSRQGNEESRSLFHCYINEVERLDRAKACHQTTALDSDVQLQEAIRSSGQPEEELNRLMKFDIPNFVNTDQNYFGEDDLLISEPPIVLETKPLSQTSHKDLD
The experiment is described as follows: single-molecule pull-down (SiMPull); one-colour SiMPull with photobleaching step analysis: HA-Halo-tagged protein labelled on HEK293 cells with membrane-impermeable CA-Sulfo646, lysed in 0.5% LMNG/0.05% CHS, immobilised by biotinylated anti-HA antibody on a PEG-passivated slide, TIRF imaging. The note with it: remark: other sources report otherwise.

The record followed here is paper doi:10.1101/2024.11.06.622243.

Bounds are passed on as bounds.

B1: HA-Halo-MRAP2, Q96G30 1-205 (natural protein)
chain: T1 chain
modifications: here or on the partner: CA-Sulfo646 dye on the Halo tag; CA-Sulfo646 dye on the Halo tag
In turn, B1 had a percent of molecules with one bleaching step of 68%, a percent of molecules with three or four bleaching steps below 5% and a percent of molecules with two bleaching steps of 28%.
